4 molecules from paper PMC3115021, “Dynamics of Cdk1 Substrate Specificity during the Cell Cycle” (Molecular Cell, 2011) can be followed below.

Holding throughout (test): Quantitative phosphorylation assay of T33-Sic1ΔC constructs and recombinant substrates
What all share (type): biochemical
Holding throughout (details): Table S2; purified protein substrate; relative values, not divided by [S]

The target of data set [1] is T1, Clb2-Cdk1 (Saccharomyces cerevisiae, UniProt P00546+P24869).
T1 construct: We purified the four cyclin-Cdk1 complexes from yeast; made in house; host or cells: S. cerevisiae strain DOM0077 (gal-CLB2-TAP, sic1 deleted); Cks1 from bacteria
The method, then:
(§1) For the quantitative phosphorylation assays of T33-Sic1ΔC constructs and recombinant substrates, substrate concentrations were kept in the range of 0.5–2 μM (in the linear [S] versus v0 range, several-fold below the estimated KM value), and initial velocity conditions were defined as an initial substrate turnover of up to 10% of the total turnover. For the steady-state peptide kinetics of the Histone peptide PKTPKKAKKL, a similar assay composition was used as for protein substrates, and phosphocellulose paper was used for the quantification of the phosphorylated substrate. […]
(§2) similar substrate specificity as the Cln2-Cdk1 version purified using a TAP-tag. N-terminally 6His-tagged recombinant T33-Sic1ΔC constructs and substrates were cloned into the pET28a vector and purified by standard cobalt affinity chromatography and elution with 200 mM imidazole. 6His-Fin1 was purified as described previously (Woodbury and Morgan, 2007). Substrates cloned into the pGEX-4T-1 were purified on glutathione agarose columns using 5 mM reduced glutathione for elution. Cks1 was purified as described previously (Reynard et al., 2000). The optimal working concentration for purified Cks1 was taken as 500 nM based on optimization performed for cyclin-Cdk1 preparations and T33-Sic1ΔC as a substrate.
(§3) For the quantitative phosphorylation assays of T33-Sic1ΔC constructs and recombinant substrates, substrate concentrations were kept in the range of 0.5-2 μM (in the linear [S] vs v0 range, several-fold below the estimated KM value), and the initial velocity conditions were defined as an initial substrate turnover ranging up to 10% of the total turnover. The latter was estimated by a long-term incubation with excess amounts of cyclin-Cdk1 and 32P-γ-ATP in the standard reaction mixture given below. About 1-10 nM of purified kinase complex was used, reaction aliquots were taken at two or more time points, and the reaction was stopped by SDS-PAGE sample buffer. The relative kcat/KM values for the substrates were calculated as the ratio of v0/[S], which was determined from at least two independent experiments. The basal composition of the assay mixture contained 50 mM Hepes, pH 7.4, 100 mM NaCl, 0.1% NP-40, 20 mM imidazole, 0.1 mg/ml 2HA peptide, 2% glycerol, 2 mM EGTA, 0.2 mg/ml BSA, […], and 500 μM ATP (with added 32P-γ-ATP (Perkin Elmer)).
(§4) About 1-10 nM of purified kinase complex was used, reaction aliquots were taken at two or more time points, and the reaction was stopped by SDS-PAGE sample buffer. For the steady-state peptide kinetics of the Histone peptide PKTPKKAKKL, a similar assay composition was used as for protein substrates and the standard phosphocellulose method was applied for the quantification of the phosphorylated substrate (Loog and Morgan, 2005). Synthetic peptides as competitor agents were used in 4 mM final concentrations. […]

In data set [2] the target is T2, Clb3-Cdk1 (Saccharomyces cerevisiae, UniProt P00546+P24870).
T2 construct: We purified the four cyclin-Cdk1 complexes from yeast; made in house; host or cells: S. cerevisiae strain DOM0957 (gal-CLB3-TAP, sic1 deleted); Cks1 from bacteria
As to the method: as §1, §2, §3, §4

Data set [3] deals with T3, Clb5-Cdk1 (Saccharomyces cerevisiae, UniProt P00546+P30283).
T3 construct: We purified the four cyclin-Cdk1 complexes from yeast; made in house; host or cells: S. cerevisiae strain DOM0076 (gal-CLB5-TAP, sic1 deleted); Cks1 from bacteria
The method, then: as §1, §2, §3, §4

The target in data set [4] is T4, Cln2-Cdk1 (Saccharomyces cerevisiae, UniProt P00546+P20438).
T4 construct: We purified the four cyclin-Cdk1 complexes from yeast; made in house; host or cells: S. cerevisiae strain DMY305 (galactose-induced); Cks1 from bacteria
The method, then: as §1, §2, §3, §4

The target in data set [5] is T5, Clb2hpm-Cdk1 (Saccharomyces cerevisiae, UniProt P00546).
T5 construct: made in house; host or cells: S. cerevisiae strain DOM0964 (gal-CLB2hpm-TAP, sic1 deleted); Cks1 from bacteria
The method, then: (§5) For the quantitative phosphorylation assays of T33-Sic1ΔC constructs and recombinant substrates, substrate concentrations were kept in the range of 0.5–2 μM (in the linear [S] versus v0 range, several-fold below the estimated KM value), and initial velocity conditions were defined as an initial substrate turnover of up to 10% of the total turnover. For the steady-state peptide kinetics of the Histone peptide PKTPKKAKKL, a similar assay composition was used as for protein substrates, and phosphocellulose paper was used for the quantification of the phosphorylated substrate.
(§6) Supplemental Experimental Procedures
(§7) Plasmid constructs and yeast strains
(§8) For tandem affinity purification (TAP) of cyclin-Cdk1 complexes, the cyclin genes were cloned into the 2 micron vector pRSAB1234 containing a GAL1 promoter and the C-terminal TAP-tag. To purify different 6His-T33-Sic1ΔC forms for kinase assays, the C-terminally truncated fragment of Sic1 (with a stop codon inserted after amino acid 215) was cloned into the NheI/BamHI site of the bacterial expression vector pET28a (Invitrogen). Mutagenesis of cyclins or substrates was performed using single-stranded pRSAB1234 or pET28a vector constructs as templates. The triple mutants in the hydrophobic patch (hpm) of Clb5 and Clb2 were described previously (Loog and Morgan, 2005), and the hpm of Clb3 (Phe-201, Leu-205 and Trp-208 mutated to alanines) was designed according to sequence homology with other B-type cyclins. In T33-Sic1ΔC constructs, the other Cdk sites bearing the consensus motif S/T-P were mutated to Ala-Ala in order to prevent any possible (pseudo)substrate competition. The other Cdk substrates were cloned as full-length forms into bacterial expression vectors pET28a or pGEX-4T-1. Cdh1 was purified using the baculovirus system and was a kind gift from Monica Rodrigo-Brenni (UCSF). […]
The […]
(§9) pRSAB1234 analogously to the cyclin-Cdk1 complexes. For C-terminal tagging of cyclin genes in their chromosomal loci, the Pringle method was applied (Longtine et al., 1998). Lists of plasmid […]
(§10) The TAP method was applied for purification of cyclin-Cdk1 complexes and Swe1 as described previously for Clb5-TAP-Cdk1 and Clb2-TAP-Cdk1 (Puig et al., 2001; Ubersax et al., 2003). […]
as §2, with “tagged” for “similar substrate specificity as the Cln2-Cdk1 version purified using a TAP-tag. N-terminally 6His-tagged”
as §3
(§11) About 1-10 nM of purified kinase complex was used, reaction aliquots were taken at two or more […]

The target of data set [6] is T6, Clb3hpm-Cdk1 (Saccharomyces cerevisiae, UniProt P00546+P24870).
T6 construct: made in house; host or cells: S. cerevisiae strain MK0168 (gal-CLB3hpm-TAP, sic1 deleted); Cks1 from bacteria
As to the method: as §5, §6, §7, §8
The […]
as §9, §10
as §2, with “tagged” for “similar substrate specificity as the Cln2-Cdk1 version purified using a TAP-tag. N-terminally 6His-tagged”
as §3, §11

Data set [7] has as its target T7, Clb5hpm-Cdk1 (Saccharomyces cerevisiae, UniProt P00546).
T7 construct: made in house; host or cells: S. cerevisiae strain DOM0963 (gal-CLB5hpm-TAP, sic1 deleted); Cks1 from bacteria
As to the method:
as §5, §6, §7, §8
The […]
as §9, §10
as §2, with “tagged” for “similar substrate specificity as the Cln2-Cdk1 version purified using a TAP-tag. N-terminally 6His-tagged”
as §3, §11

T2 sequence (P00546 2-298 limits assumed): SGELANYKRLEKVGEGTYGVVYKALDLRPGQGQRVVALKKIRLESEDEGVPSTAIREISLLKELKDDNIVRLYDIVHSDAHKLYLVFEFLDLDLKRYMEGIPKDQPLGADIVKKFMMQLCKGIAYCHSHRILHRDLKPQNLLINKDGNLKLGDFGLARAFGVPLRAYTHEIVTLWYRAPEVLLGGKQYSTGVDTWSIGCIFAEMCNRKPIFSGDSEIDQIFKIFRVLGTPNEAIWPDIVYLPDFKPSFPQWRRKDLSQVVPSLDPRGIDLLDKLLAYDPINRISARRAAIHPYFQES
T2 sequence (P24870 whole entry partner): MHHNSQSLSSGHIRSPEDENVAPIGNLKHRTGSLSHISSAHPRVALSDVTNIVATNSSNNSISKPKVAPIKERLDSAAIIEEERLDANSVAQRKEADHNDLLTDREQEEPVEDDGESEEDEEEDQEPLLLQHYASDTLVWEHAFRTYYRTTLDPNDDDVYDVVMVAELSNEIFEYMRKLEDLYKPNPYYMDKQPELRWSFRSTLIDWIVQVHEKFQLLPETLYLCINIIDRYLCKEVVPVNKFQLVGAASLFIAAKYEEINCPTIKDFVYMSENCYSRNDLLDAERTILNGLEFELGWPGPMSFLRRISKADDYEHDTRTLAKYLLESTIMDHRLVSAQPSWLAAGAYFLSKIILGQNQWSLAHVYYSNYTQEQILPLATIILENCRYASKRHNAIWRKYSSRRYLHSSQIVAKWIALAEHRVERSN
T2 sequence (P20486 whole entry partner): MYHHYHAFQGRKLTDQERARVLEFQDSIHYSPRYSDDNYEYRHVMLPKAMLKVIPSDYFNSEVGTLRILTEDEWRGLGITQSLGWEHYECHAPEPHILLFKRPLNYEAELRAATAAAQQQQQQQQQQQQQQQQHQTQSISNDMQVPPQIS
T7 sequence (P00546 2-298 limits assumed): as the sequence (P00546 2-298 limits assumed) above
T3 sequence (P00546 2-298 limits assumed): as above
T3 sequence (P30283 whole entry partner): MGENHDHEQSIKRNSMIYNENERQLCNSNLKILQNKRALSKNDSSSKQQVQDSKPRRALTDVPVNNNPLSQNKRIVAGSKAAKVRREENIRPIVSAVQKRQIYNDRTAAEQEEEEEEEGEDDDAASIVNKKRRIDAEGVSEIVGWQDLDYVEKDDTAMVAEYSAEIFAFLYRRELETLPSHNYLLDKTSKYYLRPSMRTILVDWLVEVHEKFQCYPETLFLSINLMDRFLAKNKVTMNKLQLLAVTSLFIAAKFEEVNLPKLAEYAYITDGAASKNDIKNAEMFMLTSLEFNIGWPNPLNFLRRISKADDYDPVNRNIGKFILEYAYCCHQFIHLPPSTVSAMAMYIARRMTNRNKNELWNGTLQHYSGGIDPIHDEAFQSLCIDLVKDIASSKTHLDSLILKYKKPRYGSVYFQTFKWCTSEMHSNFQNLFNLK
T3 sequence (P20486 whole entry partner): as the sequence (P20486 whole entry partner) above
T4 sequence (P00546 2-298 limits assumed): as the sequence (P00546 2-298 limits assumed) above
T4 sequence (P20438 whole entry partner): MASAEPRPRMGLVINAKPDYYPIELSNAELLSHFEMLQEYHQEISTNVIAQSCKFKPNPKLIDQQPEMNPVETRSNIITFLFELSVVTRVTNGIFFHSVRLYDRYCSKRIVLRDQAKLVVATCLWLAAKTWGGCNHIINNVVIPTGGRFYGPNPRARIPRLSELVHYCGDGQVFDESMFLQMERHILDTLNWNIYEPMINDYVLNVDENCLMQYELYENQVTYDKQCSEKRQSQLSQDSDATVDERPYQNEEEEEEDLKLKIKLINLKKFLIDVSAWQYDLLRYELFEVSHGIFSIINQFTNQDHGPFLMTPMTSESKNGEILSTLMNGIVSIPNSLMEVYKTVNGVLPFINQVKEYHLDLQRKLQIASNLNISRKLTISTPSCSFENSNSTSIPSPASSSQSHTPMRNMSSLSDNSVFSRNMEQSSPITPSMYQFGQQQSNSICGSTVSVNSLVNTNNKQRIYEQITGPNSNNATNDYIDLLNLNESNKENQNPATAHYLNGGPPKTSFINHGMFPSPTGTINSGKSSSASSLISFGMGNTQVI
T4 sequence (P20486 whole entry partner): as the sequence (P20486 whole entry partner) above
T5 sequence (P00546 2-298 limits assumed): as the sequence (P00546 2-298 limits assumed) above
T1 sequence (P00546 2-298 limits assumed): as above
T1 sequence (P24869 2-491 partner limits assumed): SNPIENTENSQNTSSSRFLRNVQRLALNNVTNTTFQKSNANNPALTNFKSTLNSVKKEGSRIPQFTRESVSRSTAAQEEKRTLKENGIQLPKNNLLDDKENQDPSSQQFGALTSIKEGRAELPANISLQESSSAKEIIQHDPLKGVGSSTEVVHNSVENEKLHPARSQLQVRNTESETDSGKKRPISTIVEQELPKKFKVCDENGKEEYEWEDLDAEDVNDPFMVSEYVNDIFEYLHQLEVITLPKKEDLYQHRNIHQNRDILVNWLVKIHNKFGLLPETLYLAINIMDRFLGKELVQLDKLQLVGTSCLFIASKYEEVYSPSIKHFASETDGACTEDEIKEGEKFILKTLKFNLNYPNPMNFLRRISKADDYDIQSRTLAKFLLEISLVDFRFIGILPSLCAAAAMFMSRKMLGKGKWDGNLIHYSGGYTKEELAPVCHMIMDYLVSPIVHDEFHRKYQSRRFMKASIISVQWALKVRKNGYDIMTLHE
T1 sequence (P20486 whole entry partner): as the sequence (P20486 whole entry partner) above

Regarding Histone H1 [reference compound], the “kcat/KM, Clb2” value in data set [1] turned out to be 4.900 relative units. Also, the “kcat/KM, Clb3” value in data set [2] is on record as 2.237 relative units. Also, in data set [3], the “kcat/KM, Clb5” value stood at 0.605 relative units. The “kcat/KM, Cln2” value in data set [4] stood at 1.394 relative units. Besides, the “kcat/KM, Clb2hpm” value in data set [5] is listed as 4.287 relative units. Further, the “kcat/KM, Clb3hpm” value in data set [6] stood at 1.957 relative units. Moreover, in data set [7], the “kcat/KM, Clb5hpm” value is given as 0.427 relative units.

In the case of “ASH1: transcription factor, purified protein tested as Cdk1 substrate”, the “kcat/KM, Clb2” value in data set [1] is recorded as 0.462 relative units. Further, the “kcat/KM, Clb3” value in data set [2] is reported as 0.697 relative units. Further, in data set [3], the “kcat/KM, Clb5” value was determined as 0.111 relative units. Besides, the “kcat/KM, Cln2” value in data set [4] is recorded as 0.422 relative units. In addition, in data set [5], the “kcat/KM, Clb2hpm” value was 0.389 relative units. The “kcat/KM, Clb3hpm” value in data set [6] is recorded as 0.134 relative units. Also, the “kcat/KM, Clb5hpm” value in data set [7] is on record as 0.052 relative units.

B1: FIR1: purified yeast protein tested as Cdk1 substrate (protein, UniProt P40020 1-876, looked up)
Factor interacting with REF2: MSLPVTPVKSKVCSTLSIQHEMDHDQCRDVLCPRENLLAINRTNNIESVAIPRQRSSKNKKPHEHTQSQVRFSIPDPNEISQDSPLKIVFPKSGNETERRMSTSSLLMNSHGHLVDMHSKILVDVPKEVWKFHHNRRKKCESRHRKTRSDVRSNTSSSGKEPNHSRSKSLQSIIVDTMNTYRATEVETSINENTSNISQVSPLNLSFDRPPPLTPEKNLYLTPESPLNRYHLPVPLEISLPPYLSPQNKDKKRSSLVYDGDGYSQFQEGNTSSSTESSLEQPSSSYSDEDDSIPYAHHDVSFELNNADADKLLGIDENANVNLKIQRRNLKNPQHIKSKTDRECEEKNTEKNVSLKILSTPNKLIDIPDLEHMKSPPSTGLNGTLKFFQQFEPSEEPTSPTRQVNPESLDKLDMSFKFPSSTTNNNVDKVHENRNSGDTNNEDFLKVDTSPVNQSFESRRQMLIDLQKSPTNNNPRIHKHRRSRSVHNIDDISLNFEATSTPPAPTSAPSIPVEHSNPCTSIEIPKRSPLRFTSSPKTSDIPPEAQSPKNGSFLQEISVPSIQIIPDESISHTREPSPSLIECPEDENEAFSTEVADHSIAIISETKSVPSIEPFKPLSSFNSFGQEIQNKEPTPLNQTPTDLIGKQRNCVNPHSIPFSVLSSNSQSSQSGSSKSSYNSEFSSNTAITDTTSQPSVTINRSTLEHNFIEEKRSIKNLGHGPPSQKNNYSFPRNKNTPSNRHDLDFNTIYEKRDGKMVEVILLDEDEDVGLKNNDISRTRVCHAQKAKNEQQKKRLSHCNEILGMCDKTADDAKRIIYQLVNEKHKFSEKGQQTKPKKSRVLPPLPFPLYDEKGNSLIPNKYQSSIHNDIPSHRKLK
Regarding B1, the “kcat/KM, Clb2” value in data set [1] turned out to be 0.836 relative units. Also, the “kcat/KM, Clb3” value in data set [2] is 0.223 relative units. Further, the “kcat/KM, Clb5” value in data set [3] is 0.032 relative units. The “kcat/KM, Cln2” value in data set [4] is reported as 0.042 relative units. Besides, in data set [5], the “kcat/KM, Clb2hpm” value is 0.111 relative units. Besides, in data set [6], the “kcat/KM, Clb3hpm” value is 0.017 relative units. In addition, the “kcat/KM, Clb5hpm” value in data set [7] came to 0.008 relative units.

B2: BOP3: purified yeast protein tested as Cdk1 substrate (protein, UniProt P53958 1-396, looked up)
Protein BOP3: MSTFNSYSQPKESNDNSHNNVNKSKSLLDIIFGTNVSEWAFSENALMKAMDLKIEQEKTKQQYYKLENLNRSIELFKLASSSGLPINQIHKLFNTDHGVPASSPMKAGGNQPHNNTEGTQSSENLPRLNGSMKSLKPLNMNTVSPTPMSRQPSPYKFPASSSTGGISHSTVTNVQRRANSPARIGASAVAALNDNISIKEEDVARRIPSGTKSQESPLNKKPTSLHSRNLSLPIGKFTNPNIPSTMTSILSFNRDQQQPLSQPLPPPPQQQQDLHTHNLHTIPRKPGMVQKKHRRARSTSSFGVIDLSIIDEAKEKQVQRSPSPIHSNVSVALTSHDKPIESNMKEQPNMLQSVREGRQVHDDLDDRTCSESSSRNESPVRTITKDNSVGKILNST
Take B2: in data set [1], the “kcat/KM, Clb2” value stood at 0.109 relative units. Besides, in data set [2], the “kcat/KM, Clb3” value was determined as 0.101 relative units. Moreover, in data set [3], the “kcat/KM, Clb5” value came out at 0.027 relative units. The “kcat/KM, Cln2” value in data set [4] came out at 0.521 relative units.
